# Measured values taken from article PMC2919415, “Integrating Ion Mobility Mass Spectrometry with Molecular Modelling to Determine the Architecture of Multiprotein Complexes” (PLoS ONE, 2010).
# “And” between values parts separate entries of the source, which are not always exact repeats. Equal values may be shown once.
# B1: γ subunit of the γ complex (clamp loader), E. coli (natural protein, UniProt P06710-2 1-431, looked up)
# chain: MSYQVLARKWRPQTFADVVGQEHVLTALANGLSLGRIHHAYLFSGTRGVGKTSIARLLAKGLNCETGITATPCGVCDNCREIEQGRFVDLIEIDAASRTKVEDTRDLLDNVQYAPARGRFKVYLIDEVHMLSRHSFNALLKTLEEPPEHVKFLLATTDPQKLPVTILSRCLQFHLKALDVEQIRHQLEHILNEEHIAHEPRALQLLARAAEGSLRDALSLTDQAIASGDGQVSTQAVSAMLGTLDDDQALSLVEAMVEANGERVMALINEAAARGIEWEALLVEMLGLLHRIAMVQLSPAALGNDMAAIELRMRELARTIPPTDIQLYYQTLLIGRKELPYAPDRRMGVEMTLLRALAFHPRMPLPEPEVPRQSFAPVAPTAVMTPTQVPPQPQSAPQQAPTVPLPETTSQVLAARQQLQRVQGATKAKKE
# notes: γ subunit of the E. coli clamp loader (γ complex); the legend speaks of the full length γ subunit against the truncated γ of the crystal structure; also called γ2; γ3; source: overexpressed in E. coli and purified as described [45-48]
# What was measured:
# [1] = biological target: the molecule itself; assay: native MS; nano-electrospray ion mobility-MS (Synapt HDMS) of γ alone; 0.1 M NH4OAc pH 6.9
# [2] = biological target: T1, δ′ subunit of the γ complex (clamp loader), E. coli (E. coli, UniProt P28631 1-334); assay: native MS; nano-electrospray ion mobility-MS (Synapt HDMS) of γδ′ subcomplexes; γ and δ′ mixed 3:2, then exchanged into 0.1 M NH4OAc; conditions: both partners purified
# T1 construct: δ′ subunit of the E. coli clamp loader (γ complex); source: overexpressed in E. coli and purified as described [45-48]
# [3] = biological target: the molecule itself; assay: as above
binder,measurement,setting,value
B1,stoichiometry N,[1],4
same,stoichiometry N,[2],2 γ per δ′ and 3 γ per δ′
same,stoichiometry N,[3],2 and 3
